Here are results for two molecules from article PMC12152530, “Efficient One‐Step Production of 7S,17S‐ and 10S,17S‐Dihydroxydocosahexaenoic Acids by a Double‐Oxygenating 15S‐Lipoxygenase From Chlamydomonas incerta” (Biotechnology and Bioengineering, 2025).

For orientation: Km means the concentration of substrate that gives half-maximal velocity. A word on the kcat: it is the number of substrate molecules converted per active site and unit of time at saturation. The term kcat/Km denotes the turnover number divided by the Michaelis constant.

For data set [1], the target named is T1, V. carteri f. nagariensis LOX (D8U0N8) (Volvox carteri, UniProt D8U0N8).
T1 construct: gene VOLCADRAFT_105417; synthesized gene in pET-28a(+), expressed in E. coli ER2566
T1 sequence (D8U0N8 1-1056): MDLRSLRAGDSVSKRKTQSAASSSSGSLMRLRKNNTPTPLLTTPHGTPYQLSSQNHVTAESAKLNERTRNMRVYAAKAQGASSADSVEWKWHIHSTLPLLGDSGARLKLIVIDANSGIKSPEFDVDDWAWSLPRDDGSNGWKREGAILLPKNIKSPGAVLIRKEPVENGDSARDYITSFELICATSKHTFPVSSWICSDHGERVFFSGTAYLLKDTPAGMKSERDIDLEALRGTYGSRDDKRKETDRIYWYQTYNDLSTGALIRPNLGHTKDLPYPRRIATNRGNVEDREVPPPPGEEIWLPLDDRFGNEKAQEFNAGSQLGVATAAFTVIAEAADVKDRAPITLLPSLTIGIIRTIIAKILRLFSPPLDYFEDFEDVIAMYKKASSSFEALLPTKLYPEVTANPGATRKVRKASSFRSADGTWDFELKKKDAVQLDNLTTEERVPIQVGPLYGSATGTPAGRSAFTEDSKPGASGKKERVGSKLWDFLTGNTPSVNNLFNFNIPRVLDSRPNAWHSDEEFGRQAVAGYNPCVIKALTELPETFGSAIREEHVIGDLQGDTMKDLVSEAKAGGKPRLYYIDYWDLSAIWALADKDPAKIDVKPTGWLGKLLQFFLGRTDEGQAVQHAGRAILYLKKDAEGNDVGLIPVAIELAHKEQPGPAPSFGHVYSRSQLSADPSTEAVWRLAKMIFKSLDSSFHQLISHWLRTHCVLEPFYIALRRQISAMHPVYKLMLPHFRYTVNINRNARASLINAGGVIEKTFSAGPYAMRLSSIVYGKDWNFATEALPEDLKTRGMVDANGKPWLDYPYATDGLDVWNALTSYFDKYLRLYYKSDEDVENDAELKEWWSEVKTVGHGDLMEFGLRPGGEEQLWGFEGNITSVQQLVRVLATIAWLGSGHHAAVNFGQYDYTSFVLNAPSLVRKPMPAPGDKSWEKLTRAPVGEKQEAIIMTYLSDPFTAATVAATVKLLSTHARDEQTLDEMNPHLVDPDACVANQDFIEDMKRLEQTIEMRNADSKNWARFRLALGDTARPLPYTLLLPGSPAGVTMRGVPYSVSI
The experiment in a line: product analysis after reaction with ARA. Conditions: enzyme preparation not stated; products HETE and DiHETE. Type of data set: cell-based.

Substrate in data set [2]: CC/C=C\C/C=C\C/C=C\C/C=C\C/C=C\CCCC(=O)O
Description: purified protein. It is filed as biochemical, Chlamydomonas incerta. Particulars: 50 mM HEPPS pH 7.5, 35°C, 5 min, substrate 0.05-0.2 mM, product 15S-HEPA (first oxygenation).

Substrate in data set [3]: CC/C=C\C/C=C\C/C=C\C/C=C\C/C=C\C/C=C\CCC(=O)O
The experiment in a line: purified protein. It is filed as biochemical, Chlamydomonas incerta. Conditions: 50 mM HEPPS pH 7.5, 35°C, 5 min, substrate 0.05-0.2 mM, product 17S-HDHA (first oxygenation).

Substrate in data set [4]: CCCCC/C=C\C/C=C\C/C=C\C/C=C\CCCC(=O)O
The experiment in a line: purified protein. Type of data set: biochemical, Chlamydomonas incerta. Conditions: 50 mM HEPPS pH 7.5, 35°C, 5 min, substrate 0.05-0.2 mM, product 15S-HETE (first oxygenation).

As to `CCCCC/C=C\C/C=C\C/C=C\C/C=C\CCCC(=O)O` [ARA], the “product analysis after reaction with ARA” value in data set [1] is given as “only those from V. carteri f. nagariensis (D8U0N8)”.

B1: C. incerta 15S-LOX (Chlamydomonas incerta) (protein)
chain: MNGAHSPGEVAVWKASIESSAPLLGDTGTRLEIVVIDLDTDRRSEPTNVDSWRPPVLESGPGSSTARSGASSGSGTSGWKREGRLPLPADFLTPGAVLVRKSRTVDGNASVDFIGTIKLVSATKVFHFPVHSWVSSDHDWRVFFEGTAYLPAHTPPSLRDERQRELQELQGTPATRTLERRPADRIYWYQTYDDLSSAGEGGYRPALGATARRPYPRRIATNRGAADGHPDREKPPVKAGDKPWLPYDEQFSFDKAADFNGDTLTAALPAAFSFIAEAGDQRHLTWLNLLPTAVHGLVRNVLRAVLGYAEPPAANFDSFEDVLAFFGEDAASRGSSMAPTQLYPAGQEAAMKGFGAPHDPRNPAPFKTASGAWDFRLNSAAAAAINDQIAADRVGPVPDSATGGPSSGAATAATAFAATAAAATAAGAPAAAITAPPQPGVPNLIGLLGSAVWRRLTNDPSHDINDLLYFPVPRVVDGRPDAWYTDEEYGRQALAGYHPTAITALTQLPEAFGSAIRAHHVEAELQGSSLEALVAAAAGGAKPRLYLIDHWDLSAYWQEAEEEAEAARKAGRKPPSAVQHAGRCLFYLRKDEVTGEDTALVPIAIELAHPGTHKASNGTSAPLPPTAGEVYARSELVASPQTLAVWRLAKAVFRSLDTSIHQLVAHFNRTHAALEPFLIAMRRQMSVMHPITKLMLPHFRYTLNINRNARASLINAGGIIEKTFSAGPFAMRLASAVYGKSWTFAGQALPEDLRERGMLDAAGRPWLDYPFAIDGLDTWAALTAYFDQYVSLYYDGDGAVLEDGELQAWWDEVKTEGHPDIVAFGLKSEQQVWGFTGPIAKRSDLVHVLATIAWLASGHHAAVNFGQYDFTGLILNASSLVRRPMPAPKEPAYKELTGAALGPPQERVFMTYLADPFSAVQVLATVKLLSAHARDEHTLDEANDYIVDPAAREANRAFIAAVKQLESAIETRNADPANWARYGLAAGTAAPLPYTLLMASSPPGVTMRGVPYSVSI
notes: synthesized gene in pET-28a(+), E. coli ER2566, His-Trap purified, His6 tag kept; 1016 residues plus six His, 109,248 (kDa [sic]), dimer 219 kDa
On to B1, for which the Km in the data set “purified protein [2]” was determined as 191 ± 0.1 µM; in the data set “purified protein [3]” it was 98.5 ± 0.1 µM; in “purified protein [4]” it was 101 ± 0.02 µM. For the same molecule, the kcat in the data set “purified protein [2]” was found to be 143 ± 0.2 s⁻¹; in “purified protein [3]”, 121 ± 0.2 s⁻¹; in the data set “purified protein [4]”, 149 ± 0.2 s⁻¹. In addition, the figures for the kcat/Km in “purified protein [2]”, in the data set “purified protein [3]” and in the data set “purified protein [4]” were 750000 ± 100000 M⁻¹ s⁻¹, 980000 ± 100000 M⁻¹ s⁻¹ and 1.47e+06 ± 100000 M⁻¹ s⁻¹, respectively.
